For the data set, the system named is Escherichia coli TOP10. Description: shrunken log2 fold change of peptide-encoding DNA abundance (4.5 h post-induction vs induction); higher = less antimicrobial activity (less host growth inhibition). To be noted: time post-induction: 4.5 h; library: site-saturation at positions 5, 18, 19, 20.
For the sequence RRIRKRPPRLPRPRPRPPIQPRP, the “shrunken log2 fold change” value was 0.304.
Regarding RRIRERPPRLPRPRPRPKSWPRP, the “shrunken log2 fold change” value is 0.715.
With RRIRQRPPRLPRPRPRPIFQPRP, the “shrunken log2 fold change” value is -0.269.
Take RRIRNRPPRLPRPRPRPYSYPRP: the “shrunken log2 fold change” value is 0.000362.
In the case of RRIRHRPPRLPRPRPRPYGAPRP, the “shrunken log2 fold change” value was -0.48.
Turning to RRIRWRPPRLPRPRPRPYPPPRP, the “shrunken log2 fold change” value was -0.332.
Turning to RRIRIRPPRLPRPRPRPWFIPRP, the “shrunken log2 fold change” value was -0.243.
The same measure for RRIRYRPPRLPRPRPRPFWTPRP: -0.111.
For RRIRIRPPRLPRPRPRPGFVPRP, the “shrunken log2 fold change” value was determined as 0.108.
For RRIRPRPPRLPRPRPRPYSHPRP, the “shrunken log2 fold change” value was -1.42.
As to RRIRHRPPRLPRPRPRPLWCPRP, the “shrunken log2 fold change” value is -0.22.
Under RRIRDRPPRLPRPRPRPGAPPRP stands 0.598.
Turning to RRIRSRPPRLPRPRPRPTSHPRP, the “shrunken log2 fold change” value is -0.0965.
In the case of RRIRTRPPRLPRPRPRPCCCPRP, the “shrunken log2 fold change” value was 0.276.
In the case of RRIRERPPRLPRPRPRPFFIPRP, the “shrunken log2 fold change” value was -0.354.
For RRIRVRPPRLPRPRPRPRHSPRP, the “shrunken log2 fold change” value is 0.292.
With RRIRYRPPRLPRPRPRPDCMPRP, the “shrunken log2 fold change” value was 0.0186.
RRIRCRPPRLPRPRPRPGNLPRP: the “shrunken log2 fold change” value was -0.167.
On to RRIRKRPPRLPRPRPRPVQHPRP, for which the “shrunken log2 fold change” value is 0.134.
As for RRIRVRPPRLPRPRPRPEETPRP, the “shrunken log2 fold change” value came to 0.00893.
Turning to RRIRARPPRLPRPRPRPCLWPRP, the “shrunken log2 fold change” value was -0.199.
The same measure for RRIRRRPPRLPRPRPRPYVNPRP: -0.0793; for RRIRSRPPRLPRPRPRPCARPRP: 0.00657.
The same measure for RRIRSRPPRLPRPRPRPPQSPRP: 0.373; for RRIRPRPPRLPRPRPRPQMFPRP: 0.161.
Under RRIRSRPPRLPRPRPRPWQCPRP stands -0.19; under RRIRIRPPRLPRPRPRPPWNPRP, -0.403.
Take RRIRNRPPRLPRPRPRPVDVPRP: the “shrunken log2 fold change” value was -0.122.
RRIRARPPRLPRPRPRPNLEPRP: the “shrunken log2 fold change” value turned out to be 0.0621.
The same measure for RRIRQRPPRLPRPRPRPWPTPRP: 0.00213.
On to RRIRGRPPRLPRPRPRPNRYPRP, for which the “shrunken log2 fold change” value was determined as 0.0443.
On to RRIRWRPPRLPRPRPRPQMCPRP, for which the “shrunken log2 fold change” value is 0.349.
Take RRIRFRPPRLPRPRPRPGPLPRP: the “shrunken log2 fold change” value is 0.262.
As to RRIRYRPPRLPRPRPRPQDTPRP, the “shrunken log2 fold change” value was -0.547.
As for RRIRSRPPRLPRPRPRPWYRPRP, the “shrunken log2 fold change” value was -0.119.
As to RRIRWRPPRLPRPRPRPIVKPRP, the “shrunken log2 fold change” value was -0.174.
Consider RRIRRRPPRLPRPRPRPTLHPRP, for which the “shrunken log2 fold change” value worked out at 0.534.
As for RRIRWRPPRLPRPRPRPCYVPRP, the “shrunken log2 fold change” value is -0.127.
As to RRIRSRPPRLPRPRPRPENAPRP, the “shrunken log2 fold change” value was -0.231.
In the case of RRIRMRPPRLPRPRPRPTELPRP, the “shrunken log2 fold change” value amounted to 0.172.
Under RRIRARPPRLPRPRPRPVTEPRP stands 0.154; under RRIRCRPPRLPRPRPRPSSSPRP, -0.366.
With RRIRLRPPRLPRPRPRPSIIPRP, the “shrunken log2 fold change” value is -0.735.
In the case of RRIRLRPPRLPRPRPRPYKYPRP, the “shrunken log2 fold change” value turned out to be 0.0639.
On to RRIRTRPPRLPRPRPRPQPNPRP, for which the “shrunken log2 fold change” value was 0.0183.
On to RRIRNRPPRLPRPRPRPVCDPRP, for which the “shrunken log2 fold change” value was 0.0842.
For the sequence RRIRSRPPRLPRPRPRPHTFPRP, the “shrunken log2 fold change” value was -1.36.
Under RRIRMRPPRLPRPRPRPDCRPRP stands 0.134; under RRIRMRPPRLPRPRPRPIMHPRP, -0.128; under RRIRNRPPRLPRPRPRPVAWPRP, -0.01.
For RRIRKRPPRLPRPRPRPNNVPRP, the “shrunken log2 fold change” value was found to be 0.0112.
For RRIRQRPPRLPRPRPRPPRNPRP, the “shrunken log2 fold change” value amounted to 0.765.
Regarding RRIRCRPPRLPRPRPRPFCEPRP, the “shrunken log2 fold change” value amounted to 0.000102.
Under RRIRYRPPRLPRPRPRPIDPPRP stands -0.00088; under RRIRWRPPRLPRPRPRPRDYPRP, -0.127.
As for RRIRTRPPRLPRPRPRPIFAPRP, the “shrunken log2 fold change” value was 0.408.
In the case of RRIRQRPPRLPRPRPRPIKDPRP, the “shrunken log2 fold change” value was -0.034.
As to RRIRMRPPRLPRPRPRPYRIPRP, the “shrunken log2 fold change” value is -0.0176.
In the case of RRIRYRPPRLPRPRPRPNATPRP, the “shrunken log2 fold change” value is -0.222.
On to RRIRSRPPRLPRPRPRPQKLPRP, for which the “shrunken log2 fold change” value came out at 0.0126.
The same measure for RRIRRRPPRLPRPRPRPYMSPRP: -0.054.
Regarding RRIRHRPPRLPRPRPRPTLRPRP, the “shrunken log2 fold change” value is -0.0301.
In the case of RRIRPRPPRLPRPRPRPSYIPRP, the “shrunken log2 fold change” value is -0.458.
For RRIRLRPPRLPRPRPRPQVSPRP, the “shrunken log2 fold change” value was 0.0548.
For the sequence RRIRTRPPRLPRPRPRPFKCPRP, the “shrunken log2 fold change” value was -0.18.
On to RRIRKRPPRLPRPRPRPDAGPRP, for which the “shrunken log2 fold change” value was -0.034.
For RRIRTRPPRLPRPRPRPGCSPRP, the “shrunken log2 fold change” value came to 0.0133.
The same measure for RRIRHRPPRLPRPRPRPHATPRP: 0.0228; for RRIRIRPPRLPRPRPRPKWTPRP: -0.116.
Take RRIRDRPPRLPRPRPRPSQPPRP: the “shrunken log2 fold change” value is -0.0206.
On to RRIRERPPRLPRPRPRPPNYPRP, for which the “shrunken log2 fold change” value is -0.201.
For RRIRHRPPRLPRPRPRPHTTPRP, the “shrunken log2 fold change” value was -0.491.
As to RRIRLRPPRLPRPRPRPRYHPRP, the “shrunken log2 fold change” value was -0.274.
As for RRIRYRPPRLPRPRPRPSDEPRP, the “shrunken log2 fold change” value is -0.0199.
The same measure for RRIRIRPPRLPRPRPRPPSHPRP: -0.0543; for RRIRIRPPRLPRPRPRPYEVPRP: -0.248; for RRIRYRPPRLPRPRPRPREIPRP: -0.442.
With RRIRVRPPRLPRPRPRPVTPPRP, the “shrunken log2 fold change” value came out at 0.214.
As for RRIRERPPRLPRPRPRPGMAPRP, the “shrunken log2 fold change” value came to 0.188.
As for RRIRIRPPRLPRPRPRPADRPRP, the “shrunken log2 fold change” value was -0.123.
Regarding RRIRARPPRLPRPRPRPMCNPRP, the “shrunken log2 fold change” value turned out to be 0.186.
Regarding RRIRVRPPRLPRPRPRPGMMPRP, the “shrunken log2 fold change” value came out at 0.135.
As to RRIRRRPPRLPRPRPRPCDEPRP, the “shrunken log2 fold change” value was found to be 0.197.
For the sequence RRIRIRPPRLPRPRPRPYALPRP, the “shrunken log2 fold change” value was -0.0961.
Consider RRIRVRPPRLPRPRPRPDAWPRP, for which the “shrunken log2 fold change” value turned out to be 0.0757.
For RRIRIRPPRLPRPRPRPRLQPRP, the “shrunken log2 fold change” value came to 0.123.
Turning to RRIRHRPPRLPRPRPRPWWVPRP, the “shrunken log2 fold change” value was -0.136.
RRIRWRPPRLPRPRPRPVSIPRP: the “shrunken log2 fold change” value came out at 0.235.
In the case of RRIRTRPPRLPRPRPRPTEMPRP, the “shrunken log2 fold change” value worked out at 0.3.
Under RRIRCRPPRLPRPRPRPEFHPRP stands -0.664; under RRIRMRPPRLPRPRPRPNDWPRP, 0.435.
For RRIRNRPPRLPRPRPRPWPPPRP, the “shrunken log2 fold change” value worked out at 0.692.
In the case of RRIRYRPPRLPRPRPRPEGFPRP, the “shrunken log2 fold change” value is -0.487.
Regarding RRIRMRPPRLPRPRPRPINVPRP, the “shrunken log2 fold change” value is -0.0528.
RRIRERPPRLPRPRPRPVCAPRP: the “shrunken log2 fold change” value stood at 0.415.
The same measure for RRIRRRPPRLPRPRPRPHIDPRP: -0.43; for RRIRFRPPRLPRPRPRPILEPRP: -0.133; for RRIRQRPPRLPRPRPRPGLEPRP: 0.134.
On to RRIRQRPPRLPRPRPRPFWSPRP, for which the “shrunken log2 fold change” value is -0.00402.
With RRIRKRPPRLPRPRPRPIHGPRP, the “shrunken log2 fold change” value was -0.122.
Under RRIRGRPPRLPRPRPRPFFYPRP stands 0.539; under RRIRGRPPRLPRPRPRPAFRPRP, 0.749.
For RRIRQRPPRLPRPRPRPIDLPRP, the “shrunken log2 fold change” value is -0.194.
As for RRIRARPPRLPRPRPRPQGLPRP, the “shrunken log2 fold change” value stood at 0.208.
RRIRGRPPRLPRPRPRPWDEPRP: the “shrunken log2 fold change” value stood at 0.0077.
For RRIRIRPPRLPRPRPRPGGSPRP, the “shrunken log2 fold change” value was -0.0491.
On to RRIRKRPPRLPRPRPRPVYGPRP, for which the “shrunken log2 fold change” value was -0.0742.
As for RRIRMRPPRLPRPRPRPLAVPRP, the “shrunken log2 fold change” value turned out to be 0.328.
For the sequence RRIRNRPPRLPRPRPRPEVCPRP, the “shrunken log2 fold change” value was -0.049.
Regarding RRIRNRPPRLPRPRPRPKHQPRP, the “shrunken log2 fold change” value is 0.124.
As to RRIRPRPPRLPRPRPRPCGAPRP, the “shrunken log2 fold change” value turned out to be 0.206.
Regarding RRIRSRPPRLPRPRPRPMDQPRP, the “shrunken log2 fold change” value worked out at 0.362.
As for RRIRRRPPRLPRPRPRPWTTPRP, the “shrunken log2 fold change” value stood at 0.201.
With RRIRYRPPRLPRPRPRPEALPRP, the “shrunken log2 fold change” value is -0.23.
The same measure for RRIRWRPPRLPRPRPRPEEPPRP: 0.805; for RRIRGRPPRLPRPRPRPGVEPRP: 1.46; for RRIRYRPPRLPRPRPRPETQPRP: -0.00798.
On to RRIRQRPPRLPRPRPRPRKKPRP, for which the “shrunken log2 fold change” value is -0.0181.
Consider RRIRGRPPRLPRPRPRPPQEPRP, for which the “shrunken log2 fold change” value came out at 0.352.
Under RRIRRRPPRLPRPRPRPIDFPRP stands 0.137; under RRIRWRPPRLPRPRPRPWKIPRP, -0.0733.
The same measure for RRIRSRPPRLPRPRPRPGACPRP: 0.0577; for RRIRRRPPRLPRPRPRPHWGPRP: 0.291.
Turning to RRIRDRPPRLPRPRPRPHYDPRP, the “shrunken log2 fold change” value stood at 0.0428.
For RRIRSRPPRLPRPRPRPPANPRP, the “shrunken log2 fold change” value worked out at 0.283.

(Values after the supplement of paper PMC9112550, “Optimization of the antimicrobial peptide Bac7 by deep mutational scanning” (BMC Biology, 2022).)
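Also: peptides expressed intracellularly from a pBAD plasmid library in pooled LB shake-flask culture, induced with 0.3% L-arabinose, DNA abundance read by NGS, three biological replicates, DESeq2 with apeglm shrinkage.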
